Assay [1] concerns the target T1, full-length human Notch3 expressed on the cell surface (human, UniProt Q9UM47 40-2321). As to the kind of experiment: cell-based or functional assay.
Assay [2] addresses T2, human Notch3 NRR recombinant protein (Notch3 NRR_Avi_His tag) (human).
T2 construct: Purified from CHO-PACE cells; the entry includes the C-terminal Avi and His6 tag
T2 chain: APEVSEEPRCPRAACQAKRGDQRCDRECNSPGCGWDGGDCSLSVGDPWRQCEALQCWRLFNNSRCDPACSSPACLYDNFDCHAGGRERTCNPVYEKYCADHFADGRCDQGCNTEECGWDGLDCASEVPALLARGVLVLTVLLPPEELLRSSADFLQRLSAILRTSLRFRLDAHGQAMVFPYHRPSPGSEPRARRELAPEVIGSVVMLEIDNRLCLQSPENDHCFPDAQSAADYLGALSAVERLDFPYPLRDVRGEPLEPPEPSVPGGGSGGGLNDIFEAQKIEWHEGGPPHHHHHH
As to the kind of experiment: ELISA, plate-coated recombinant protein.
Description: Purified human or mouse Notch3 NRR recombinant proteins were coated on CoStar hi-bound 96-well ELISA plates in 100 μl of PBS with Mg/Ca at a concentration of 1 μg/ml overnight. The plates were washed with PBS-Mg/Ca and blocked for 1 hour with 1% BSA in PBS-Mg/Ca. Blocking solution was decanted from the plate and 1:3 serial dilutions of antibodies in blocking solutions were applied to the plate. After incubation at room temperature for 1 hour, plates were washed again with PBS-Mg/Can before HRP (horse radish peroxidase)-conjugated secondary antibody diluted (1:20,000) in blocking buffer was applied. When the primary antibody tested was rat IgG, the secondary antibody was goat anti-rat IgG Fc (Bethyl Biotech); and when the primary antibody was human IgG, the secondary antibody was goat anti-human IgG Fc (Southern Biotech).
After 1 hour incubation with the secondary antibody, plates were washed again, as described above, and TMB substrate solution was added. The developing reaction was allowed for 10 minutes before the stopping solution, 0.18M H₂SO₄, was added.

In assay [3] the target is T1, full-length human Notch3 expressed on …. Nature of the assay: cell-based ELISA, U2OS/hNotch3 cells. A general note: ELISA stands for enzyme-linked immunosorbent assay.
Description: (§1) U-2 OS cells stably over-expressing human or mouse full length Notch3 protein on cell surface (hereinafter U2OS/hNotch3 and U2OS/mNotch3, respectively) were plated at 50,000 cells/well in 96 well plates (white opaque, BD/VWR) the day before ELISA assay. On the day of the ELISA, culture media was removed from wells and serially diluted (1:3 in blocking buffer) antibody solutions were applied to the plate. Plates were incubated at room temperature for 2 hours before being washed with PBS-Mg/Ca. HRP-conjugated secondary antibody was then applied and incubated with cells for 1 hour as described above for recombinant protein ELISA. Plates were washed with PBS-Mg/Ca before being developed with Pico-Chemiluminescent developing kit (Thermal Scientific), and chemiluminescence measurements were performed per manufacturer's instructions. Data plotting and analyses were performed with Microsoft Excel and Graphpad-Prism software.
Assay [4] addresses T3, full-length mouse Notch3 expressed on the cell surface (mouse, UniProt Q61982 40-2318).
T3 construct: whole, on cells; Over-expressed on U-2 OS cells; also called U2OS/mNotch3
Nature of the assay: cell-based ELISA, U2OS/mNotch3 cells.
Description: as §1

Assay [5] concerns the target T1, full-length human Notch3 expressed on …. As to the kind of experiment: competition ELISA on U2OS/hNotch3 cells; competitor 0.8 nM biotinylated ch75.
Description: (§2) 96 well cell culture plates were seeded with U2OS/hNotch3 cells (cell culture plate, Co-star). […] After incubation for 2 hours, the plates were washed, as described above, and HRP-conjugated streptavidin (Southern Biotech) diluted 1:5000 in blocking buffer was applied. After incubation with streptavidin for 30 minutes, the plates were washed again before being developed with TMB solution for 10 minutes. […] Data plotting and analyses were performed with Microsoft Excel and Graphpad-Prism software.
The target of assay [6] is T2, human Notch3 NRR recombinant protein …. As to the kind of experiment: SPR (Biacore T100), antibody captured on anti-human IgG-Fc, Notch3 NRR as analyte, 1:1 Langmuir fit. In general terms: Surface plasmon resonance follows binding to a sensor surface in real time, without labels.
Description: The kinetic constants of the anti-Notch3 NRR interactions were determined by surface plasmon resonance (Biacore® T100, Biacore Inc., Piscataway, N.J.). Flow cells of a CM5 chip were immobilized with approximately 10,000 response units (RU) of anti-human IgG-Fc (Biacore®) in 10 mM Glycine, pH 5.0 at 10 μl/min for 600 seconds. […] Association of four concentrations of human Notch3 NRR recombinant protein (from 3.7-100 nM) and a zero concentration (running buffer) at 100 μl/min were recorded for 3 minutes in TBS with 1 mM CaCl₂. Dissociation of the complexes was measured for 10 minutes. The surface of the chip was regenerated by injecting 3M MgCl₂ with 3 mM EGTA for 60 seconds at 10 μl/min. Curves obtained after subtraction of the reference and buffer signals were fitted to a 1:1 Langmuir binding model with Biacore® T100 Evaluation Software (Biacore®).
In another assay the target is Notch3-NRR (human). As to the kind of experiment: ELISA: NRR-Fc protein coated at 1 ug/ml, antibody applied at 5 ug/ml, goat anti-human Fc-HRP, TMB, O.D. 450 nM.
In a further assay the target is T4, human Notch1 NRR-Fc (human, UniProt P46531 1446-1733, limits assumed).
T4 construct: domain: NRR region; Made in CHO-PACE cells; not shown: human IgG1 Fc fragment
T4 sequence (looked up): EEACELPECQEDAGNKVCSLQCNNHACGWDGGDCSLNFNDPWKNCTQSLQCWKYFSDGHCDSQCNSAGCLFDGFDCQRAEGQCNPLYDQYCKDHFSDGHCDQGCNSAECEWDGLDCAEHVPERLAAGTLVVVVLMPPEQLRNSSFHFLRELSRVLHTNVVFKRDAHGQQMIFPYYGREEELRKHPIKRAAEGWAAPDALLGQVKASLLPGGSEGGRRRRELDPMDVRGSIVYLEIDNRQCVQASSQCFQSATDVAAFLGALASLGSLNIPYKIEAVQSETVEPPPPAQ
The assay is described as above.

The target of assay [7] is T1, full-length human Notch3 expressed on …. Nature of the assay: cell-based or functional assay. The source holds these as a separate data set.
For assay [8] the target is unchanged. As to the kind of experiment: cell-based or functional assay. This is another data set of the same source.
The target is the same in assay [9]. Nature of the assay: cell-based ELISA, HCC2429 cells; SD 0.025.
Description: (§3) On the day of the ELISA, culture media was removed from wells and serially diluted (1:3 in DPBS with calcium chloride and magnesium chloride (Ca/Mg) and 1% BSA) antibody and ADC solutions were applied to the plate. Plates were incubated at room temperature for 2 hours before washed with DPBS with Ca/Mg and 1% BSA. HRP-conjugated secondary antibody was then applied and incubated with cells for 1 hour. Plates were washed with DPBS with Ca/Mg and 1% BSA before being developed with Pico-Chemiluminescent developing kit (Thermal Scientific), and chemiluminescence measurements were performed per manufacturer's instructions. Data plotting and analyses were performed with Microsoft Excel and Graphpad-Prism software.
Assay [10] shares this target. Nature of the assay: cell-based ELISA, MDA-MB-468 cells; SD 0.063.
Description: as §3
Assay [11] shares this target. Nature of the assay: cell-based ELISA, U2OS/hNotch3 cells; SD 0.029.
Description: as §3
Assay [12] has the same target. Nature of the assay: cell-based ELISA, HCC2429 cells; SD 0.009.
Description: as §3
The target is the same in assay [13]. As to the kind of experiment: cell-based ELISA, MDA-MB-468 cells; SD 0.054.
Description: as §3
Assay [14] has the same target. As to the kind of experiment: cell-based ELISA, U2OS/hNotch3 cells; SD 0.077.
Description: as §3
For assay [15] the target is unchanged. As to the kind of experiment: competition ELISA on U2OS/hNotch3 cells; competitor 0.8 nM biotinylated ch28.
Description: as §2
The target in assay [16] is T2, human Notch3 NRR recombinant protein …. As to the kind of experiment: ELISA, recombinant protein, hybridoma supernatant.
For assay [17], the target named is T5, mouse Notch3 NRR recombinant protein (Notch3 NRR_Avi_His tag) (mouse).
T5 construct: The entry includes the C-terminal Avi and His tag; S1-cleaved heterodimer as for the human protein
T5 chain: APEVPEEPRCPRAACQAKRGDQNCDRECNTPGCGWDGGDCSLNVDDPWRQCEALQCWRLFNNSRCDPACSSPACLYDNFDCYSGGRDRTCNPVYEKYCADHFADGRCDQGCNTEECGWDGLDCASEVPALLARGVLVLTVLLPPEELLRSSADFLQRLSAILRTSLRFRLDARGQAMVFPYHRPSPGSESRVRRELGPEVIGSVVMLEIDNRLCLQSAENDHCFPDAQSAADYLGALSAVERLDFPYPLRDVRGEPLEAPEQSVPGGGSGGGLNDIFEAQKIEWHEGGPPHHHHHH
Nature of the assay: ELISA, recombinant protein, hybridoma supernatant.

Read-outs that look alike come from different tables or passages of the source. Where only a bound is given, the exact number is not on record here.

Broadly, the EC50 is the concentration giving half of the maximal effect. Broadly, the Kd is the equilibrium constant for the complex coming apart. A word on the koff: it is a measure of how fast the partners let go of each other. One may read the kon as a measure of how fast the partners come together.

T1 sequence (Q9UM47 40-2321): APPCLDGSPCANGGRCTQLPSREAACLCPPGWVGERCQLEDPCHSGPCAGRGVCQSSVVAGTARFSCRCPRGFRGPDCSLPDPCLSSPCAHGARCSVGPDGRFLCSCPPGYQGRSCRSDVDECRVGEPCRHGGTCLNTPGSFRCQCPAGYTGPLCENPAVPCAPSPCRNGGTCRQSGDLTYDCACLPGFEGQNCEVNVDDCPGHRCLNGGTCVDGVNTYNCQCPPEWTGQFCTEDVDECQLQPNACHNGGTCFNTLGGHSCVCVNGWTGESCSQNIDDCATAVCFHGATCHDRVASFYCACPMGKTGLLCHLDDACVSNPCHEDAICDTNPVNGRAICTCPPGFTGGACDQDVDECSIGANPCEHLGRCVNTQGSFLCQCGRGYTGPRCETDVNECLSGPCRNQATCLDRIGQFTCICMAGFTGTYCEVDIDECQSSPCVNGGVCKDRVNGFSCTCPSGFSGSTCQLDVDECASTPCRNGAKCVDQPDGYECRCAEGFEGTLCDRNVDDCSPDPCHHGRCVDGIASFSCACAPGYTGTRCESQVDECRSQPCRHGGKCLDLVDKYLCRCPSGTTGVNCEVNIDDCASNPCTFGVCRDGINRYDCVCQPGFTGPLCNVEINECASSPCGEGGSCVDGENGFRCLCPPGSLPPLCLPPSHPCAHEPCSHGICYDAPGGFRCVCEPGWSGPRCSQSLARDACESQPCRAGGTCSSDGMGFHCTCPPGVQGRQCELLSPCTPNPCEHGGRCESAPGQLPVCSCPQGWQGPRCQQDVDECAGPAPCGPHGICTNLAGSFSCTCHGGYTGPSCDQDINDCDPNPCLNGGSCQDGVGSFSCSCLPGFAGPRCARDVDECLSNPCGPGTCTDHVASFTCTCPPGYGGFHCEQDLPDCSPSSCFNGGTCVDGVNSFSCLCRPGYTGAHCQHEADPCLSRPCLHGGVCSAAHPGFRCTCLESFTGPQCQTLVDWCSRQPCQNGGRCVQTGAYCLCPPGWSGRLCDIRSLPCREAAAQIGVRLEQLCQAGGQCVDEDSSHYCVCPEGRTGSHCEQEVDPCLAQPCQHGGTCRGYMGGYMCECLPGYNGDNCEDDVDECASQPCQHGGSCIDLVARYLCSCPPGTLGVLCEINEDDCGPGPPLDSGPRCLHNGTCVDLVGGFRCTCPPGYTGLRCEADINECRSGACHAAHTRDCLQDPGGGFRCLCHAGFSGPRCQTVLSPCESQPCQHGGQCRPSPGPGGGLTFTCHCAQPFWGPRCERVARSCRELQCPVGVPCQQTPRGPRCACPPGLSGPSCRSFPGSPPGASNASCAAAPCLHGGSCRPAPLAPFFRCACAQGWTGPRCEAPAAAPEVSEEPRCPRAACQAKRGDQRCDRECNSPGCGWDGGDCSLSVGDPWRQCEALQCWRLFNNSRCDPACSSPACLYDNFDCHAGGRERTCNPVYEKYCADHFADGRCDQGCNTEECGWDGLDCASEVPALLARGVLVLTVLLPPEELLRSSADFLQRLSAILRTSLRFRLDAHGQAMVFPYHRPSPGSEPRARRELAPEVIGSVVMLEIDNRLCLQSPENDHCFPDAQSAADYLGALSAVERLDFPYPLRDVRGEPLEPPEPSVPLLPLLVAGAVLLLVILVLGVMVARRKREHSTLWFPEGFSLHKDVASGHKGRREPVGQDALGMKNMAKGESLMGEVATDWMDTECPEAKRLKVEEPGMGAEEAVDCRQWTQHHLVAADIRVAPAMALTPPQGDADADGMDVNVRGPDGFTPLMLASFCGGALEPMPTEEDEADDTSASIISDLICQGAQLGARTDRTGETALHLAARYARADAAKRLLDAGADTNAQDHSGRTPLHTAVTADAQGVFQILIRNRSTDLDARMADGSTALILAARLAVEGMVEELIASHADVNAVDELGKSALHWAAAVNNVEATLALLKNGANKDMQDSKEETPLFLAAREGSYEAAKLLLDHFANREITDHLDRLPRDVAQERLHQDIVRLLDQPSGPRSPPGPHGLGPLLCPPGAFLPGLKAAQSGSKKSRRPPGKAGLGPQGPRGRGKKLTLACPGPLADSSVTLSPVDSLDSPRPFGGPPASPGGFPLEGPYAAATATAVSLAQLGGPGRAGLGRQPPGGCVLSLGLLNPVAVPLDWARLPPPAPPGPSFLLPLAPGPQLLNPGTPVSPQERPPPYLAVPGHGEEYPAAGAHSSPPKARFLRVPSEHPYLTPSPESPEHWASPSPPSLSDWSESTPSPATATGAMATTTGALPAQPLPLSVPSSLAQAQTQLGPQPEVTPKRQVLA
T3 sequence (Q61982 40-2318): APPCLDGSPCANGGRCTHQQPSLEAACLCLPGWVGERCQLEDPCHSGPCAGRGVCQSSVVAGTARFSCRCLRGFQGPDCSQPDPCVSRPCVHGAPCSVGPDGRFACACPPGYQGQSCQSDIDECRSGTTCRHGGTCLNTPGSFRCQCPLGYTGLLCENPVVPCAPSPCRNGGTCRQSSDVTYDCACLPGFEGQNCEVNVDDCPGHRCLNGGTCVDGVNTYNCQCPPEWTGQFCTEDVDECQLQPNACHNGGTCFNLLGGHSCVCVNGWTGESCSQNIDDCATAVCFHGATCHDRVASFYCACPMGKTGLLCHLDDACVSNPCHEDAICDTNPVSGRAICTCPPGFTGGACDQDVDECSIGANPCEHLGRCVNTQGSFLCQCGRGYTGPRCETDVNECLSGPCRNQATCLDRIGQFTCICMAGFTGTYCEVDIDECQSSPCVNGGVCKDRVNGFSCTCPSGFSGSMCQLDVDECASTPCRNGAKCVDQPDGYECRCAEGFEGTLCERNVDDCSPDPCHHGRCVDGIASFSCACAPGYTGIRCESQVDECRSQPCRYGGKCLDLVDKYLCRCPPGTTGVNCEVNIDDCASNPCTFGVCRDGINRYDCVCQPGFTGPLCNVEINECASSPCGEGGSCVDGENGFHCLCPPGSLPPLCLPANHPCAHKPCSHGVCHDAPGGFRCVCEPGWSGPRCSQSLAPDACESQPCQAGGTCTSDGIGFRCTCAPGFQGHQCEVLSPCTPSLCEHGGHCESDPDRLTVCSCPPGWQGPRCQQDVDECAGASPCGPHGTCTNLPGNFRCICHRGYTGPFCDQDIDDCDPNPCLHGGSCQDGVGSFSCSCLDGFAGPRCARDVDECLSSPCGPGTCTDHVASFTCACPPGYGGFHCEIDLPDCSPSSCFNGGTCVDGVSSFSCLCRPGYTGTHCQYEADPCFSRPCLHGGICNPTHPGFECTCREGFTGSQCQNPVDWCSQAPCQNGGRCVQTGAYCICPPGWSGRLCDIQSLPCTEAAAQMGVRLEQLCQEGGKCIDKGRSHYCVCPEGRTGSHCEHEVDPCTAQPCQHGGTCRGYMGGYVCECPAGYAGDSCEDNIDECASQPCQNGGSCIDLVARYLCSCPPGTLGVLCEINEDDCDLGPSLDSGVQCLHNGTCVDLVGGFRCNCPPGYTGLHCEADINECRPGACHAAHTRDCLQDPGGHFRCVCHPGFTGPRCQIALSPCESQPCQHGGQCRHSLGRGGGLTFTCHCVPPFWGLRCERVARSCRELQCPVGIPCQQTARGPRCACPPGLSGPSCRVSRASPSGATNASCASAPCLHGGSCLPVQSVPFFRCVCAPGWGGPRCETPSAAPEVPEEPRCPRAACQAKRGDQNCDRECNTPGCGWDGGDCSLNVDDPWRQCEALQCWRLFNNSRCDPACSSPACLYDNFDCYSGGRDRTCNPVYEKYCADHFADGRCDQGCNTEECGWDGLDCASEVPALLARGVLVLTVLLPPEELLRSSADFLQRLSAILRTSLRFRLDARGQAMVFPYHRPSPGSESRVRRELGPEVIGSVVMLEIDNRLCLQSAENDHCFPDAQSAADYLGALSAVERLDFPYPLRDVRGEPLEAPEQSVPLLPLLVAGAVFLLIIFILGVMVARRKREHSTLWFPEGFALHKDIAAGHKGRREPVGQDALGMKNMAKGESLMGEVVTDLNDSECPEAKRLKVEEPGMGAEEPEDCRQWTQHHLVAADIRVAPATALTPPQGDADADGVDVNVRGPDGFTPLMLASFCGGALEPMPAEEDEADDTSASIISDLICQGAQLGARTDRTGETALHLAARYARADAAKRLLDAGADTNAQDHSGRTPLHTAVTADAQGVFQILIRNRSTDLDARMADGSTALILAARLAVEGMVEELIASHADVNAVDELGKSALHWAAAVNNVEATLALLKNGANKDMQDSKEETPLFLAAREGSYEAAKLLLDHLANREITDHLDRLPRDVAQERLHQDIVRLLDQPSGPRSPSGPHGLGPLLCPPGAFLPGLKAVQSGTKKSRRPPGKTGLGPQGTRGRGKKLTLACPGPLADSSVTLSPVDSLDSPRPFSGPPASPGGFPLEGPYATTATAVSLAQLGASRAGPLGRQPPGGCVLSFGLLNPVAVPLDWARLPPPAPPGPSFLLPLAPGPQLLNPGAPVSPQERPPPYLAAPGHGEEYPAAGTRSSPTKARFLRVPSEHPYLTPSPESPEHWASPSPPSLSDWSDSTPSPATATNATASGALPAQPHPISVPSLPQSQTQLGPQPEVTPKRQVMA
Description for Notch3-NRR: (§4) After 1 hour of incubation, plates were washed with PBS with 0.9 mM Mg²⁺ and Ca²⁺, before secondary goat anti-human Fc antibody conjugated with HRP were applied and incubated on the plates. After washing again, the plates were developed with TMB and the developing reactions were stopped by adding 0.18M H₂SO₄.
Description for human Notch1 NRR-Fc: as §4

B1: ch75-mc0131 (Notch3-75-cG1-(C)_mc-0#118) (antibody, V domains shown)
VH: QVKLLQSGAALVKPGASVKMSCKASGYAFTDYWVTWVKQSHGKSLEWIGEISPNSGGTNFNEKFKGKATLTVDKSTSTAYMELSRLTSEDSAIYYCTRGEIRYNWFAYWGQGTLVTVSS
VL: DIQMTQSPSSLSASVGDRVTITCKASQNVGNNIAWYQQKPGKAPKLLIYYASNRYTGVPSRFSGSGYGTDFTLTISSLQPEDFATYYCQRLYNSPFTFGGGTKVEIK
Consider B1, for which, in assay [1], the “IC50 of cytotoxicity (MTS viability), OVCAR3 cells” value (“IC50 of cytotoxicity … OVCAR3 cells” below) turned out to be 289 ng Ab/mL and the “IC50 of cytotoxicity (MTS viability), U2OS/hNotch3 cells” value was 19 ng Ab/mL.

B2: ch75-vc6780 (Notch3-75-cG1-(C)_mcValCitPABC-#112) (antibody, V domains shown)
VH: B1 VH
VL: B1 VL
Regarding B2, the “IC50 of cytotoxicity … OVCAR3 cells” value in assay [1] turned out to be 922 ng Ab/mL.

B3: rat-human chimeric antibody 75 (ch75) (antibody, V domains shown)
VH: B1 VH
VL: NIVMTQSPKSMSISVGDRVTMNCKASQNVGNNIAWYQQKPGQSPKLLIYYASNRYTGVPDRFTGGGYGTDFTLTINSMQAEDAAFYYCQRLYNSPFTFGSGTKLEIK
notes: also called ch75-hIgG1; ch75-hulgG1
For B3, the EC50 in [2] is no more than 1000 pM; in assay [3] it was 200 pM; in assay [5] it was 1300 pM. The binding result is listed as “no binding” in [4] and “no binding (tested: 5 ug/ml)” with human Notch1 NRR-Fc. Also, in assay [6], the Kd amounted to 17400 pM. For the same molecule, in assay [6], the koff stood at 0.000992 s⁻¹. In addition, the kon in assay [6] worked out at 57000 M⁻¹ s⁻¹. In addition, the “O.D. 450 nM (ELISA, relative binding capacity)” value in the assay with Notch3-NRR was 1.72.

B4: ch75-mc3377 (Notch3-75-cG1-(C)_mc-#115) (antibody, V domains shown)
VH: B1 VH
VL: B1 VL
As for B4, the “IC50 of cytotoxicity (MTS viability), MDA-MB-468 cells” value (“IC50 … MDA-MB-468 cells” for short) in assay [1] is 560 ng Ab/mL.

B5: ch75-me0131 (Notch3-75-cG1-(C)_me-0#118) (antibody, V domains shown)
VH: B1 VH
VL: B1 VL
For B5, in assay [1], the “IC50 … MDA-MB-468 cells” value is 259 ng Ab/mL.

B6: hu28-vc0101 (Notch3-28-v1010-hG1-(C)_mcValCitPABC-#54) (antibody, human IgG1, kappa, V domains shown)
VH: EVQLVESGGGLVQPGGSLRLSCAASGFTFRDYGMTWVRQAPGKGLEWVAYISSGSNYIYYAEAVKGRFTISRDNAKNSLYLQMNSLRAEDTAVYYCARRGPFVLDAWGQGTLVTVSS
VL: DIQMTQSPSSLSASVGDRVTITCKASQSINRYLHWYQQKPGKAPKLLIYNANGLQTGVPSRFSGSGSGTDFTLTISSLQPEDFATYYCLQHNTWPDTFGGGTKVEIKR
modifications: vc0101 linker-payload on cysteine residues after partial reduction; sites not specified
notes: Antibody-drug conjugate of hu28
Turning to B6, in assay [7], the “IC50 of cytotoxicity (MTS viability), HCC2429 cells, repeat 1” value turned out to be 473 ng Ab/mL; the “IC50 of cytotoxicity (MTS viability), HCC2429 cells, repeat 2” value was found to be 2940 ng Ab/mL; the “IC50 of cytotoxicity (MTS viability), MDA-MB-468/hNotch3 cells, repeat 1” value came out at 3.2 ng Ab/mL; the “IC50 of cytotoxicity (MTS viability), MDA-MB-468/hNotch3 cells, repeat 2” value was 3 ng Ab/mL. Further, in assay [7], the “IC50 … MDA-MB-468 cells” value turned out to be 6540 ng Ab/mL; the “IC50 of cytotoxicity … OVCAR3 cells” value came to 306 ng Ab/mL; the “IC50 of cytotoxicity (MTS viability), U2OS/hNotch3 cells” value was 1330 ng Ab/mL. Also, in [8], the “IC50 of cytotoxicity, MDA-MB-468/hNotch3 cells, Notch3 siRNA (reduced Notch3 expression)” value is 3340 ng Ab/mL and the “IC50 of cytotoxicity, MDA-MB-468/hNotch3 cells, control siRNA” value amounted to 3 ng Ab/mL. Also, in assay [9], the EC50 is 176 pM. In assay [10], the EC50 stood at 273 pM. In addition, the EC50 in assay [11] came to 266 pM.

B7: hu28 (humanized r28 variant VH1.0/VL1.0) (antibody, human IgG1, kappa, V domains shown)
VH: B6 VH
VL: B6 VL
notes: Human IgG1/kappa; also called hu28 VH1.0/VL1.0; hu28 VH1.0/V1.0
In the case of B7, the EC50 in assay [3] worked out at 93 pM; in [4] it was 130 pM; in assay [12], 132 pM; in [13] it was 192 pM; in [14], 172 pM; in [15], 3100 pM. Also, in [6], the Kd was found to be 900 pM. Moreover, the koff in assay [6] was 0.000347 s⁻¹. The kon in assay [6] turned out to be 386000 M⁻¹ s⁻¹.

B8: ch28-me0131 (Notch3-28-cG1-(C)_me-0#118) (antibody, V domains shown)
VH: EVQLVESGGGLVQPGRSLTLSCVASGFTFRDYGMTWIRQAPGKGLTWVAYISSGSNYIYYAEAVKGRFTISRDNAKNTLYLQMTSLRSEDTALYFCTRRGPFVLDAWGQGASVTVSS
VL: DIQMTQSPSFLSASVGDRVTINCKASQSINRYLHWFQQKLGEAPKLLIYNANGLQTGIPSRFSGSGSGTDFTLTISSLQSEDVATYFCLQHNTWPDTFGAGTKLELK
As for B8, in [1], the “IC50 of cytotoxicity (MTS viability), HCC2429 cells” value turned out to be 30 ng Ab/mL.

B9: parental rat clone 28 (r28) (antibody, V domains shown)
VH: B8 VH
VL: B8 VL
notes: Rat monoclonal antibody from hybridoma, tested as hybridoma supernatant
For B9, the “O.D. 450 nM” value in assay [16] and in assay [17] was no less than 1 O.D. 450 nM throughout.

B10: ch28-vc0101 (Notch3-28-cG1-(C)_mcValCitPABC-#54) (antibody, V domains shown)
VH: B8 VH
VL: B8 VL
On to B10, for which, in [1], the “IC50 of cytotoxicity … OVCAR3 cells” value was 635 ng Ab/mL.

The record behind these values is patent publication US20140127211A1 (Pfizer, published 2014).
